{
  "source": "patent US9243280",
  "key": {"[1]": {"biological_target": "Ribosomal protein S1 bearing the C-terminal control peptide tag (UniProt P0AG67)"}, "[2]": {"biological_target": "Ribosomal protein S1 bearing the C-terminal degradation peptide tag (UniProt P0AG67)"}, "[3]": {"test_system": "GFP fusion with aminoglycoside acetyltransferase (AAC)"}},
  "note": "Entries after “also recorded” stand apart in the source; their conditions may differ.",
  "data": [
    {"substance": "ClpXP protease (complex of a hexamer of the ClpX unfoldase and the 14-mer ClpP protease)", "values": [
      {"measurement": "colony formation on plates with arabinose (ClpP and ClpX induced)", "setting": "[1]", "result": "Colony formation by the rpsA-cont strain was unaffected by ClpP-X expression"},
      {"measurement": "level of S1-cont after induction of ClpP-X (anti-FLAG immunoblot of total protein)", "setting": "[1]", "result": "The induction of ClpP-X in the rpsA-cont strain did not alter the level of S1-cont throughout the time course"},
      {"measurement": "amount of S1-deg present 25, 35, and 45 minutes post induction, quantified against a dilution series on an immunoblot", "setting": "[2]", "result": "less than 0.5% of the level present prior to induction"},
      {"measurement": "level of S1-deg after induction of ClpP-X (anti-FLAG immunoblot of total protein)", "setting": "[2]", "result": "the level of S1-deg was reduced to approximately 50% by 15 minutes; also recorded: to trace levels at 25 minutes and beyond"},
      {"measurement": "number of colony-forming units on plates under inducing against non-inducing conditions", "setting": "[2]", "result": "expression of ClpP-X reduced the number of colony-forming units by more than a million-fold when the strain relied on S1-deg for growth"},
      {"measurement": "in vitro degradation at 30 degrees C with ClpX, ClpP, ATP and an ATP regeneration system (SDS-PAGE, Coomassie staining)", "setting": "[3]", "result": "By 80 minutes, all of the substrate (10-fold over ClpX6) was degraded"}
    ]}
  ]
}
